The text below walks through data of patent US20210332115A1 (Sanofi, published 2021).

B1: VH4/Vκ7 (antibody, V domains shown)
VH: EVQLVESGGGLVKPGGSLRLSCAASGFTFSNYAMSWVRQAPGKRLEWVATISNRGSYTYYPDSVKGRFTISRDNAKNSLYLQMSSLRSEDTALYYCARERPMDYWGQGTSVTVSS
VL: DIQMTQSPSTLSASVGDRVTITCKASQDVGTAVAWYQQKPGKAPKLLIYWASTRHTGVPDRFSGSGSGTDFTLTISSLQAEDFAVYFCHQHSSNPLTFGQGTKLEIK
notes: Redesigned variant; cloned into the appropriate expression vector (IgG4v1 and kappa were used in the first round)
B2: VH7/Vκ7 (antibody, V domains shown)
VH: B1 VH with A40T, G42E, S84N, S88A, S110L
VL: B1 VL
notes: Redesigned variant; cloned into the appropriate expression vector (IgG4v1 and kappa were used in the first round); also called VH7/VκK7
B3: VH6/Vκ6 (antibody, V domains shown)
VH: B1 VH with S84N, S88A, S110L
VL: B1 VL with Q3V, T10F, S63T, A80S
notes: as for B1
B4: VH4/Vκ6-IgG4v1 (antibody)
heavy: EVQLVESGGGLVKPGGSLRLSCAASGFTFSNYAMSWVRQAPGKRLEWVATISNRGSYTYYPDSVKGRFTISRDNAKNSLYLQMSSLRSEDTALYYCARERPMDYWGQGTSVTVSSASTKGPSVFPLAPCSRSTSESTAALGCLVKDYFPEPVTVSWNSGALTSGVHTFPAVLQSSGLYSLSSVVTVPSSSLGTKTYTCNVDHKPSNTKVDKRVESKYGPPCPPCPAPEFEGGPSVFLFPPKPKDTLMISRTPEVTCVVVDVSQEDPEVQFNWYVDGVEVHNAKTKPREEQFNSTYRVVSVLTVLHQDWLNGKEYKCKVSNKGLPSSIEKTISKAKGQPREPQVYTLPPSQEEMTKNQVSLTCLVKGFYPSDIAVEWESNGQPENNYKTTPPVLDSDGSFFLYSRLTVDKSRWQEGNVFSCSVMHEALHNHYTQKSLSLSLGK
light: DIVMTQSPSFLSASVGDRVTITCKASQDVGTAVAWYQQKPGKAPKLLIYWASTRHTGVPDRFTGSGSGTDFTLTISSLQSEDFAVYFCHQHSSNPLTFGQGTKLEIKRTVAAPSVFIFPPSDEQLKSGTASVVCLLNNFYPREAKVQWKVDNALQSGNSQESVTEQDSKDSTYSLSSTLTLSKADYEKHKVYACEVTHQGLSSPVTKSFNRGEC
notes: also called VH4/VK6; V46/VK6-IgG4v1
B5: VH6/Vκ0 (antibody, V domains shown)
VH: B1 VH with S84N, S88A, S110L
VL: DIVMTQSHKFMSTSVGDRVSITCKASQDVGTAVAWYQQKPGQSPKLLIYWASTRHTGVPDRFTGSGSGTDFTLTITNVQSEDLAVYFCHQHSSNPLTFGAGTKLELK
notes: Control antibody of the redesign round; cloned into the appropriate expression vector (IgG4v1 and kappa were used in the first round), HEK EBNA supernatant
B6: VH5/Vκ0 (antibody, V domains shown)
VH: B1 VH with A40T, G42E
VL: B5 VL
notes: as for B5
B7: VH7/Vκ0 (antibody, V domains shown)
VH: B1 VH with A40T, G42E, S84N, S88A, S110L
VL: B5 VL
notes: as for B5
B8: VH5/Vκ6 (antibody, V domains shown)
VH: B1 VH with A40T, G42E
VL: B1 VL with Q3V, T10F, S63T, A80S
notes: Redesigned variant; cloned into the appropriate expression vector (IgG4v1 and kappa were used in the first round), HEK EBNA supernatant
B9: VH5/Vκ7 (antibody, V domains shown)
VH: B1 VH with A40T, G42E
VL: B1 VL
notes: as for B8
B10: VH7/Vκ6 (antibody, V domains shown)
VH: B1 VH with A40T, G42E, S84N, S88A, S110L
VL: B1 VL with Q3V, T10F, S63T, A80S
notes: as for B8
B11: Anti-factor Bb mouse monoclonal antibody (antibody, V domains shown)
VH: B1 VH with G10A, R19K, A40T, G42E, S78T
VL: B5 VL
notes: Mouse monoclonal antibody from a hybridoma; also called murine parental antibody; parent anti-factor Bb antibody

Positions count from the first letter of the chain named.

One assay deals with T1, Homo sapiens factor Bb protein (human, UniProt P00751 260-764).
T1 construct: Bought from CompTech (A155); also called complement factor Bb; human factor Bb
T1 sequence (P00751 260-764 limits assumed): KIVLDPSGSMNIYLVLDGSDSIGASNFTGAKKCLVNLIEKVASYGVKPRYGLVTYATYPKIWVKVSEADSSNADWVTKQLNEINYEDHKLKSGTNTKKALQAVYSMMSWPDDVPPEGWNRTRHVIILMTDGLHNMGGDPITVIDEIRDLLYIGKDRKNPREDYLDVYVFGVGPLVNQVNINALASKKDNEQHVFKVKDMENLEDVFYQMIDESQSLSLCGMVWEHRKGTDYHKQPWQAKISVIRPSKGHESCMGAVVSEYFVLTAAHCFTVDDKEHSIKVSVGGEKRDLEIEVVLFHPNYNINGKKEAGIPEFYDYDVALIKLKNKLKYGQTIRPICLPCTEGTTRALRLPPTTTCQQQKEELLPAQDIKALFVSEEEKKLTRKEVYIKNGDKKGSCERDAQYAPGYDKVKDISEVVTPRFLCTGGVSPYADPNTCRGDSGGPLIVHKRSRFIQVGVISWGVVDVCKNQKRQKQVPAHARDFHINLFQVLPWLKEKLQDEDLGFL
Description: competition ELISA on coated factor Bb; competitor murine parental antibody. The protocol:
Factor Bb was diluted in 1× PBS to 1.0 μg/ml and 100 μl/well was coated overnight at 4° C. on a 96-well ELISA plate. The following day the plates were blocked for two hours at room temperature with 1% casein/PBS before washing 2× with PBS pH 7.4. In a 96-well dilution plate a fixed concentration of murine parental antibody (0.5 μg/ml, final concentration) was added in equal volume to a four-fold titration series of test antibody (starting from 45 μg/ml to 0.01 μg/ml, final concentration) diluted in blocking buffer. After washing the plate 3× with PBS-T, 100 μl of chimeric/test antibody mix was added to the ELISA plate. After incubating at room temperature for one hour, the plate was washed 3× with PBS-T and 100 μl of anti-mouse IgG Fc-Specific HRP (Sigma, Dorset, UK) diluted 1:1000 in PBS-T was applied for one hour at room temperature to detect bound mouse antibody. For color development, the plate was washed 3× with PBS-T following which 100 μl of TMB substrate was added and incubated for approximately five minutes at room temperature. The reaction was stopped with 50 μl of 3.0 M hydrochloric acid and absorbance was read immediately using a DYNEX ® plate reader at 450 nm.
IC50 values were calculated for each variant and relative IC50 values were calculated by dividing the IC50 of the humanized variant by that of the chimeric antibody assayed on the same plate (Table 11).
A general note: In an ELISA, binding on a coated surface is turned into a signal by an enzyme label.
For the molecule B1, the IC50 (as a rule, the concentration that inhibits the measured activity by half) turned out to be 0.75 nM.
B2: the IC50 was found to be 1.43 nM.
Turning to B3, the concentration for half-maximal inhibition (IC50) amounted to 0.93 nM.
Consider B4, for which the IC50 is 1.02 nM.

A further assay concerns the target T1, Homo sapiens factor Bb protein. Description: SPR single cycle kinetics; ratio against VH0/Vκ0. As to the method: All single cycle kinetic experiments were run at 25° C. with HBS-P+running buffer (pH 7. 4) (GE Healthcare, Little Chalfont, UK).
(§1) Antibodies were diluted in running buffer to a final concentration of 1 μg/ml, based on concentrations assessed by ELISA titer. At the start of each cycle, antibodies were loaded onto Fc2, Fc3 and Fc4 of the Protein A chip (GE Healthcare, Little Chalfont, UK). IgGs were captured at a flow rate of 10 μl/min to give an immobilization level (RL) of ˜63 RU, the theoretical value to obtain an Rmax of ˜50 RU. The surface was then allowed to stabilize. Single cycle kinetic data was obtained with factor Bb (CompTech, Tyler, USA) as the analyte at a flow rate of 30 μl/min to minimize any potential mass transport limitations. Multiple repeats with the reference chimeric antibody were performed to check the stability of the surface and analyte over the kinetic cycles. The signal from the reference channel Fc1 (no antibody) was subtracted from that of Fc2, Fc3 and Fc4 to correct for differences in non-specific binding to a reference surface. A four point, two-fold dilution range from 0. 78 nM to 6. 25 nM factor Bb without regeneration between each concentration was used. The association phase for the four injections of increasing concentrations of factor Bb was monitored for 200 seconds each time and a single dissociation phase was measured for 200 seconds following the last injection of factor Bb. Regeneration of the Protein A surface was conducted using two injections of 10 mM glycine-HCL pH 1. 5.
Single cycle kinetics using cell culture supernatants were performed as described above. […] The relative KD was calculated by dividing the KD of the VH0/Vκ0 reference antibody by that of the humanized variant assayed in the same experiment.
On to B1, for which the “Relative KD” value was 1.32.
With B5, the “Relative KD” value amounted to 1.86.
The same measure, in the same setting: as for B6, the figure is 235; as for B7, 4.25; as for B2, 1.37.
As for B3, the “Relative KD” value came out at 2.17.
Same read-out and setting: as for B8, the figure is 73.5.
B9: the “Relative KD” value is 294.
The same measure, in the same setting: as for B10, the figure is 10.2; as for B4, 1.25.

Another assay shares this target. The assay is described as follows: cell-based or functional assay.
On to B1, for which the “AP Assay IC50” value is 23 nM.
Consider B2, for which the “AP Assay IC50” value is 25 nM.
The same measure, in the same setting: as for B3, the figure is 19 nM.
Same read-out and setting: as for B4, the figure is 22 nM.

Another assay has the same target. The assay is described as follows: BLI Octet, biotinylated antibody on SA biosensors. As to the method:
(§2) Briefly, biotinylated antibodies were loaded onto SA Biosensors equilibrated in PBS, 0.1% BSA, 0.02% Tween-20 (assay buffer). After a 60 second baseline in assay buffer, antibodies were loaded onto the probes for 180 seconds, followed by another 60 second baseline. Association to human (Comptech) or cynomolgus monkey factor Bb (purified in-house) was measured for 300 seconds, followed by a 300 second dissociation. Kinetic parameters were calculated by the Octet Analysis software using a 1:1 binding model.
To determine whether the modification of the Fc portion of the antibodies affected affinity and species cross-reactivity, VH4/VK6-IgG4v2 and VH6/VK7-IgG4v2 were tested alongside their parental antibodies, VH4/VK6 and VH6/VK7, respectively, for their ability to bind human and cynomolgus monkey factor Bb by BLI. VH4/VK6-IgG4v2 and VH6/VK7-IgG4v2 contain mutations in the Fc region that increase the affinity for an Fc receptor.
(In general: BLI is a label-free optical method that tracks binding on a fibre tip over time.)
B4: the Kd (as a rule, the concentration at which binding is half-saturated) was 1.6 nM.

A further assay shares this target. Description: SPR multi-cycle kinetics; ratio against VH0/Vκ0 on the same chip. As to the method:
(§3) Antibodies were diluted in running buffer to a final concentration of 0.5 μg/ml. At the start of each cycle, antibodies were loaded onto Fc2, Fc3 and Fc4 of the Protein A chip (GE Healthcare, Little Chalfont, UK). IgGs were captured at a flow rate of 10 μl/min to give an immobilisation level (RL) of ˜63 RU, the theoretical value to obtain an Rmax of ˜50 RU. The surface was then allowed to stabilize. Kinetic data was obtained with factor Bb as analyte and using a flow rate of 30 μl/min to minimize any potential mass transfer effects. Multiple repeats of a blank and a repeat of a single concentration of the analyte were programmed into the kinetic run in order to check the stability of both the surface and analyte over the kinetic cycles. For kinetic analysis, a two-fold dilution range was selected from 12. 5 nM to 0. 391 nM factor Bb. The association phase of factor Bb was monitored for 360 seconds and the dissociation phase was monitored for 600 seconds. Regeneration of the Protein A surface was conducted using two injections of 10 mM glycine-HCL pH 1. 5. The signal from the reference channel Fc1 was subtracted from that of Fc2, Fc3 and Fc4 to correct for differences in non-specific binding to a reference surface, and a global Rmax parameter was used in the 1-to-1 binding model.
(§4) The sensorgrams and fitted data for the binding of chimeric antibodies and humanized variants to factor Bb are shown in FIGS. 4A-4C. The relative KD was calculated by dividing the KD of the humanized variants by that of the chimeric antibody on the same chip. The kinetic parameters measured for the interaction of factor Bb with chimeric antibodies and humanized variants are shown in Table 10.
B1: the “Relative KD” value turned out to be 1.31.
The same measure, in the same setting: as for B2, the figure is 5.01.
The same measure, in the same setting: as for B3, the figure is 2.71.
Still for that read-out and setting: as for B4, the figure is 1.08.

The next assay has the same target. The assay is described as follows: BLI Octet, biotinylated antibody on SA biosensors. This is another data set of the same source. The protocol:
as §2
In turn, B1 registered a dissociation constant Kd of 1.9 nM. In other words, the single-digit nanomolar range.
B11: the Kd is 1.9 nM.
Same read-out and setting: as for B2, the figure is 2.9 nM.
The molecule B3 displayed a Kd of 1.9 nM.
For the molecule B4, binding was put at a Kd of 1.6 nM.

The next assay shares this target. Description: SPR single cycle kinetics, IgG on Protein A chip, factor Bb analyte. As to the method:
In order to assess the binding of all humanized variants, single cycle kinetic analysis was performed on supernatants from transfected cell cultures. […] All single cycle kinetic experiments were run at 25° C. with HBS-P+running buffer (pH 7. 4) (GE Healthcare, Little Chalfont, UK).
as §1
Single cycle kinetics using cell culture supernatants were performed as described above.
On to B1, for which binding was characterised by a dissociation constant (Kd) of 2.34 nM; the koff (commonly the first-order rate constant of dissociation) was 0.000903 s⁻¹; the kon (as a rule, the second-order rate constant of association) is 386000 M⁻¹ s⁻¹.
In the same order, the values of B5 are 3.29 nM, 0.00197 s⁻¹ and 598000 M⁻¹ s⁻¹.
Consider B6, for which binding was characterised by a dissociation constant (Kd) of 416 nM, the off-rate constant (koff) came to 0.00145 s⁻¹ and the kon was 3490 M⁻¹ s⁻¹.
For B7, in that order: 7.53 nM, 0.00207 s⁻¹ and 274000 M⁻¹ s⁻¹.
In the same order, the values of B2 are 2.42 nM, 0.0117 s⁻¹ and 4.83e+06 M⁻¹ s⁻¹.
In the same order, the values of B3 are 3.84 nM, 0.00158 s⁻¹ and 412000 M⁻¹ s⁻¹.
In turn, B8 displayed a Kd of 130 nM, a koff of 0.0173 s⁻¹ and a kon of 133000 M⁻¹ s⁻¹.
Molecule B9 came in with a Kd of 521 nM, a koff of 0.00166 s⁻¹ and a kon of 3200 M⁻¹ s⁻¹.
In the same order, the values of B10 are 18 nM, 0.00303 s⁻¹ and 168000 M⁻¹ s⁻¹.
In the same order, the values of B4 are 2.22 nM, 0.000859 s⁻¹ and 387000 M⁻¹ s⁻¹.

The next assay shares this target. Description: SPR multi-cycle kinetics, IgG on Protein A chip, factor Bb analyte. As to the method:
as §3, §4
In turn, B1 yielded a Kd of 2.61 nM, a koff of 0.000841 s⁻¹ and a kon of 322000 M⁻¹ s⁻¹.
In the same order, the values of B2 are 9.51 nM, 0.00211 s⁻¹ and 222000 M⁻¹ s⁻¹.
For B3, in that order: 5.17 nM, 0.0013 s⁻¹ and 251000 M⁻¹ s⁻¹.
For B4, the affinity, expressed as Kd, was 2.14 nM; the koff came out at 0.000805 s⁻¹; the kon is 376000 M⁻¹ s⁻¹.
